Measured values published in article PMC1885673 (Nucleic Acids Research, 2007).

B1: S. pombe Rad51, purified (natural protein)
chain: MADTEVEMQVSAADTNNNENGQAQSNYEYDVNVQDEEDEAAAGPMPLQMLEGNGITASDIKKIHEAGYYTVESIAYTPKRQLLLIKGISEAKADKLLGEASKLVPMGFTTATEYHIRRSELITITTGSKQLDTLLQGGVETGSITELFGEFRTGKSQICHTLAVTCQLPIDMGGGEGKCLYIDTEGTFRPVRLLAVADRYGLNGEEVLDNVAYARAYNADHQLELLQQAANMMSESRFSLLVVDSCTALYRTDFSGRGELSARQMHLARFMRTLQRLADEFGIAVVITNQVVAQVDGISFNPDPKKPIGGNILAHSSTTRLSLRKGRGEQRICKIYDSPCLPESEAIFAINSDGVGDPKEIIAPV
B2: S. pombe Dmc1, purified (natural protein)
chain: MEEFAEGNDDEQMIFSDIEDLTAHGIGMTDIIKLKQAGVCTVQGVHMSTKRFLLKIKGFSEAKVDKLKEAASKMCPANFSTAMEISQNRKKVWSISTGSEALNGILGGGIQSMSITEVFGEFRCGKTQMSHTLCVTAQLPRDMGGAEGKVAFIDTEGTFRPDRIKAIAERFGVDADQAMENIIVSRAYNSEQQMEYITKLGTIFAEDGQYRLLIVDSIMALFRVDYSGRGELSERQQKLNIMLARLNHISEEFNVAVFVTNQVQADPGAAMMFASNDRKPVGGHVMAHASATRLLLRKGRGEERVAKLNDSPDMPEAECSYVITPGGIADVS
B3: S. pombe Mnd1 (Mcp7), His-tagged, from pET16b, co-expressed and co-purified with Hop2 (natural protein)
chain: MPPKGLSLAEKRRRLEAIFHDSKDFFQLKEVEKLGSKKQIVLQTVKDVLQSLVDDNIVKTEKIGTSNYYWSFPSDAKRSRESVLGSLQAQLDDLKQKSKTLDENISFEKSKRDNEGTENDANQYTLELLHAKESELKLLKTQLSNLNHCNPETFELKNENTKKYMEAANLWTDQIHTLIAFCRDMGADTNQIREYCSIPEDLDDLQLPIL

Legend:
[1] = molecular target: T1, S. pombe Hop2-Mnd1 complex, purified, His-tagged (S. pombe, UniProt Q9HGK2;Q09739); assay: pull-down
T1 sequence 1: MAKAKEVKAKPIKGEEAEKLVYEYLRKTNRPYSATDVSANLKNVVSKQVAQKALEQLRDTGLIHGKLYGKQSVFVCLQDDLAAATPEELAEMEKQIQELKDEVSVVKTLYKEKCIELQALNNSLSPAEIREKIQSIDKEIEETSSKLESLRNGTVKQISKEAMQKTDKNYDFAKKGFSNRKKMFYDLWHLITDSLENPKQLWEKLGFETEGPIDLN
T1 sequence 2: B3 chain

[2] = molecular target: T2, S. pombe Hop2 (Meu13), His-tagged, from pET28b, co-expressed and co-purified with Mnd1 (S. pombe, UniProt Q9HGK2 1-216); assay: co-elution in ion-exchange chromatography
T2 sequence: T1 sequence 1

Row | Binder | binding result [1] | binding result [2]
1 | B1 | binds | –
2 | B2 | binds | –
3 | B3 | – | binds
